The values below come from patent US20110020432A1, “COMPOSITIONS AND METHODS OF USE FOR POST-RADIATION PROTECTION” (TERAPIO CORPORATION, priority 2009, published 2011).

For assay [1] the following is noted: reported in the scientific literature; cited from earlier work.
The test system of assay [2] is mice. The conditions noted are these: whole animal studies; reported DRF; cited from earlier work.
Assay [3] has as its system C57BL6/albino mice. Briefly: Survival after whole body X-irradiation, oral RLIP76 proteoliposomes (dose and time response). It counts as in vivo. As for the experimental part:
In order to investigate whether RLIP76 could be effective when delivered more than 24 hours after radiation exposure, a series of studies were conducted to explore the protective benefit of RLIP76 when given at varying doses, exposure levels, and times after exposure. All mice were C57BL6/albino strain, the strain most commonly used for radiation effect models. Exposure was delivered by whole body X-irradiation with a Varian Clinac Linear accelerator (2100C) at the Texas Cancer Center (Arlington, Tex.). A 6-MeV photon beam was used at a rate of 400 cGy/minute. Mice were isolated to one side of their cage on top of 1.5 cm of superflab bolus and the field of treatment centered on them. Total dose was split into two fractions, anterior and posterior, by rotating the accelerator gantry 180 degrees. Unless otherwise specified, all experiments were performed on six mice per group.
Dose and time dependency was investigated over a range of radiation exposures. Initially, six groups of wild-type mice were exposed to 500 cGy of radiation, and then treated with no RLIP76 proteoliposomes (control) or various dosages of RLIP76 proteoliposomes given at various times after the radiation exposure. […]

The subject of assay [4] is wild-type (+/+) and homozygous (−/−) RIP1 mice. Nature of the assay: Survival of wild-type and RIP1 knockout mice after X-irradiation, RLIP76 liposomes i.p. In kind it is in vivo. As for the experimental part: FIG. 5. Effect of RLIP76 on survival after higher doses of X irradiation. Four wild-type (+/+) RIP1 mice and four homozygous (−/−) mice were each exposed to 750 cGy X irradiation and treated with control liposomes administered by i.p. injection (triangles, homozygous RIP1 mice; diamonds, wild-type RIP mice), or 400 μg RLIP76 liposomes administered by i.p. injection (squares, homozygous RIP1 mice; circles, wild-type RIP1 mice), given 12 hours after exposure.
As disclosed in U.S. Ser. No. 11/741,447, C57B mice that carry both copies of the RIP1 (mouse version of RLIP76) gene (wild-type; +/+), one copy of the RIP1 gene (heterozygous; +/−), or no copies of the RIP1 gene (homozygous; −/−) were created using Cre-Lox technology that can selectively suppress genes (Lexicon Genetics, Incorporated, The Woodlands, Tex.). Western blot analysis of tissues from homozygous RIP 1 knockout mice was performed after i.p. injection of RLIP76-liposomes. […]
If loss of RIP1 was the major determining factor in this acquired radiation sensitivity, replacement of this deficit should reverse radiation […]. […] Liposomes were prepared in sufficient quantities and administered via intraperitoneal (i.p.) injection to homozygous RIP1 mice. […]

Regarding `Cc1cc(C(C)(C)C)c(O)c(C(C)(C)C)c1` [BHT, butylated hydroxytoluene], the “radioprotective effect on its own” value in assay [1] is reported as “radioprotective effect”.
As for `CC1=NN(c2ccccc2)C(=O)C1` [edaravone, 3 methyl-1-phenyl-2-pyrazolin-5-one], in assay [2], the “dose-reduction factor (DRF)” value is listed as 1.3.
For the molecule `CC1(C)CC(O)CC(C)(C)N1[O]` [tempol, 4-hydroxy-2,2,6,6-tetramethylpiperidinyloxy], the “dose-reduction factor (DRF)” value in assay [2] is 1.3.

B1: RLIP76 protein: ubiquitous multi-specific efflux pump protein; human sequence of 655 amino acids, GenBank NP—006779; recombinant (protein, UniProt Q15311 2-655, looked up)
RalA-binding protein 1: TECFLPPTSSPSEHRRVEHGSGLTRTPSSEEISPTKFPGLYRTGEPSPPHDILHEPPDVVSDDEKDHGKKKGKFKKKEKRTEGYAAFQEDSSGDEAESPSKMKRSKGIHVFKKPSFSKKKEKDFKIKEKPKEEKHKEEKHKEEKHKEKKSKDLTAADVVKQWKEKKKKKKPIQEPEVPQIDVPNLKPIFGIPLADAVERTMMYDGIRLPAVFRECIDYVEKYGMKCEGIYRVSGIKSKVDELKAAYDREESTNLEDYEPNTVASLLKQYLRDLPENLLTKELMPRFEEACGRTTETEKVQEFQRLLKELPECNYLLISWLIVHMDHVIAKELETKMNIQNISIVLSPTVQISNRVLYVFFTHVQELFGNVVLKQVMKPLRWSNMATMPTLPETQAGIKEEIRRQEFLLNCLHRDLQGGIKDLSKEERLWEVQRILTALKRKLREAKRQECETKIAQEIASLSKEDVSKEEMNENEEVINILLAQENEILTEQEELLAMEQFLRRQIASEKEEIERLRAEIAEIQSRQQHGRSETEEYSSESESESEDEEELQIILEDLQRQNEELEIKNNHLNQAIHEEREAIIELRVQLRLLQMQRAKAEQQAQEDEEPEWRGGAVQPPRDGVLEPKAAKEQPKAGKEPAKPSPSRDRKETSI
As to B1, the “rescue with delayed first dose” value in assay [3] (initial dose given a full 24 hours or more after the radiation exposure) is “significant rescue”. In addition, the increase in survival in assay [3] (wild-type mice, radiation dose that normally results in complete lethality by day 30 (500 cGy), 2 doses of 100 micrograms, oral) worked out at 200%. The “survival as compared with RIP1+/+ mice” value in assay [4] (RIP1−/− mice supplemented with RLIP76, 750 cGy) is “significantly improved survival”. Also, the “reversal of radiation sensitivity” value in assay [4] (mice genetically deficient in RLIP76 protein, supplementation by intravenous or oral administration) was “can be reversed”.
